One assay has as its system lymphatic vessels. The assay can be described thus: Murine lymphangiogenesis and angiogenesis assay in growth factor MATRIGEL plugs. In kind it is in vivo. The note with it: mice, 400 ng growth factor. The protocol: (§1) Lymphangiogenesis and angiogenesis assays in MATRIGEL were performed as described (Eliceiri et al, 1999, Mol. Cell 4:915) by injecting subcutaneously into wild-type C57B1/6 mice (n=5) 400 μL of cold MATRIGEL containing 400 ng of bFGF, VEGF-A, or VEGF-C (R&D Systems, Minneapolis, Minn.). Mice were then injected twice at day1 and day3 with 200 μl of blocking anti-α4β1 (PS2) or anti-α5β1 (5H10) antibodies, or isotype control antibody. After 7 days, MATRIGEL plugs were removed, embedded in OCT, frozen and sectioned. Thin sections (5 μm) were immunostained with anti-CD31 antibodies.
For quantification, vessel numbers, tumor foci or pixel number in 10 microscopic fields per cryosection (per animal) were quantified and the mean number of vessels+/−s.e.m. for the entire treatment group was determined.

The test system of another assay is Lewis lung carcinoma. The experiment in a line: Local VEGF-C stimulation of lymph nodes in LLC tumor-bearing mice. The class given is in vivo. The protocol: (§2) C57BL/6 mice were injected subcutaneously with 350 μl of ice-cold saline or VEGF-C-containing Matrigel (1 μg/ml) proximal to the inguinal lymph node. In parallel, 5×10^5 LLC cells were injected dorsally near the inguinal or brachial lymph nodes. Mice were sacrificed after 1, 7 and 14 days. Mice with stimulated inguinal nodes were also sacrificed after 21 days. Inguinal, brachial and mesenteric lymph nodes were removed and embedded in OCT for cryosectioning and immunohistochemistry.

Assay [1] concerns lymph nodes. The experiment in a line: Systemic or local VEGF-C injections in normal mice, lymph node lymphangiogenesis. The class given is in vivo.
Assay [2] relates to lymph nodes. The experiment in a line: Lymph node lymphangiogenesis proximal to implanted VEGF-C MATRIGEL
The class given is in vivo, mice. The protocol: as §1, §2

A further assay has as its system RFP-LLC cells. The assay can be described thus: Experimental footpad injection metastasis study (RFP-LLC). In kind it is in vivo, mice. The protocol: Inguinal lymph node lymphangiogenesis was stimulated by injecting mice intradermally above the left inguinal lymph node with 50 μl of saline or VEGF-C (200 ng per mice) every day for 7 days. Mice were inoculated with 10^6 RFP-LLC cells in a volume of 150 μl in the left footpad. Twenty four hours later, mice were sacrificed. Inguinal, brachial and mesenteric lymph nodes were removed and embedded in OCT for cryosectioning and immunofluorescence. RFP-tumor cell and Lyve-1+pixels were quantified on 5 different sections per lymph node.

In the next assay the test system is LLC cells. The experiment in a line: Transwell migration of LLC cells. The class given is cell-based, murine. The note with it: 10, 100 or 500 ng/ml. The protocol: FIG. 29. Analysis of LLC cell expression of integrin α4 and VEGF-R3. A) Expression of VEGF-R3, integrins α5β1 and α4β1 (black lines) on LLC cells was evaluated by flow cytometry. Grey lines depict binding of isotype matched control IgG. While 100% of cells express integrin α5β1, none express α4β1 or VEGF-R3. B) Transwell migration of LLC cells in the presence or absence of serum or VEGF-C at 10, 100 or 500 ng/ml.

Entries after “also recorded” stand apart in the source; their conditions may differ. Bounds are passed on as bounds.

Take “bFGF: angiogenic growth factor (R&D Systems) [reference compound]”: the “invasion of growth factor saturated MATRIGEL by new lymphatic vessels” value in the assay on lymphatic vessels is “new lymphatic vessels invade”.

B1: VEGF-C: lymphangiogenesis-promoting growth factor (R&D Systems) used as stimulus (protein, UniProt P49767 112-227, looked up)
Vascular endothelial growth …: AHYNTEILKSIDNEWRKTQCMPREVCIDVGKEFGVATNTFFKPPCVSVYRCGGCCNSEGLQCMNTSTSYLSKTLFEITVPLSQGPKPVTISFANHTSCRCMSKLDVYRQVHSIIRR
Take B1: in the assay on lymphatic vessels, the “invasion of growth factor saturated MATRIGEL by new lymphatic vessels” value is recorded as “new lymphatic vessels invade”. Further, the “lymphatic vessel density in draining (inguinal) lymph node” value in the assay on Lewis lung carcinoma (local injection, versus saline) is reported as “significantly increased”. The “lymphangiogenesis and metastasis to other lymph nodes” value with Lewis lung carcinoma (local stimulation of inguinal node) is “no effect”. Further, the “primary tumor growth (tumor volume)” value in the assay on Lewis lung carcinoma (local stimulation of inguinal node, after 21 days) is reported as “no effect; also recorded: No statistical difference”. Also, the “time at which tumor metastases were induced” value in the assay with Lewis lung carcinoma (local stimulation of inguinal node, 21 days for saline treated animals) is listed as not above 14 days. Also, in the assay with Lewis lung carcinoma (stimulation of brachial node), the “lymphangiogenesis in stimulated distant (brachial) lymph node” value is “selectively enhanced”, the “metastasis to stimulated distant (brachial) lymph node” value is “accelerated metastasis by one week” and the “rate of lymphangiogenesis or metastasis to inguinal or mesenteric nodes” value is “without affecting”. Also, in the assay with lymph nodes [1] (normal mice, local), the “lymph node lymphangiogenesis after local injections proximal to a single lymph node” value was “specifically affected this and not other nodes”. In the assay on lymph nodes [1] (normal mice, systemic), the “lymph node lymphangiogenesis after systemic injections” value is listed as “Widespread lymph node lymphangiogenesis”. Further, in the assay with lymph nodes [1] (versus saline), the “blood vessels within lymph nodes (CD31+ pixels/field)” value is “no significant effect; also recorded: No statistical difference”. Besides, the “lymph node lymphatic vessel density / lymphangiogenesis” value in the assay with lymph nodes [2] (VEGF-C stimulated lymph nodes) is on record as “significant increase”. For the same molecule, the lymph node size result with lymph nodes [2] (lymph nodes proximal to implanted MATRIGEL containing VEGF-C) is “expanded dramatically in size”. Besides, in the assay with RFP-LLC cells (RFP-LLC into footpad, 24 h), the “tumor cell retention in the stimulated inguinal lymph node” value is reported as “strongly enhanced”; the “tumor cell retention in unstimulated brachial or mesenteric lymph nodes” value is “not and No statistical difference”. The “lymphangiogenesis in stimulated inguinal lymph node” value in the assay with RFP-LLC cells (intradermal injections for 7 days, non-tumor bearing mice, versus saline) is listed as “significantly induced”. The “LLC cell migration in response to growth factor” value in the assay with LLC cells is recorded as “do not migrate”.

The values above are taken from patent US8808698B2, “Methods for inhibition of lymphangiogenesis and tumor metastasis” (The Regents of the University of California, priority 2006, dated 2014).
